In patent US20230167182A1 (BIOSION, published 2023):
Positions count from the first letter of the chain named.

T1: recombinant human IL6R-his (human, UniProt P08887 20-365)
T1 construct: In house made; the entry includes the C-terminal His tag; also called human IL6R-his protein
T1 sequence: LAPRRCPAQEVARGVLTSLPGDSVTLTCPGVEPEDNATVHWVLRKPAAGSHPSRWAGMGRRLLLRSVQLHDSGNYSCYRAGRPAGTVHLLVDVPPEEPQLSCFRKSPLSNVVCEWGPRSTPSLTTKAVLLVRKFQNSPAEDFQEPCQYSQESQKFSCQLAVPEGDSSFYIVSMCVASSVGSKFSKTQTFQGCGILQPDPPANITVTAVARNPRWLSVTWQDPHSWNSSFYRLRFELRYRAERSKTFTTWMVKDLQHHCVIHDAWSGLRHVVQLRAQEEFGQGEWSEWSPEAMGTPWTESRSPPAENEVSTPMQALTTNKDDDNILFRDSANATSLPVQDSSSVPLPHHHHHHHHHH

B1: Chimeric 1H9 (antibody, human IgG1, kappa, V domains shown)
VH: QVQLQQPGAELVKPGASVKLSCKASGYTFTSYWMHWVKLRPGQGLEWIGEINPTNGRTNYYEKFKNRATLTADKSSSTAYMQLSSLTFEDSAVYFCAKFHYSRWYFDVWGTGTTVTVSS
VL: DIVMTQSQKFMSTSVGDRVSITCKASQNVGTAVVWYQQKPGQSPKLLINPASNRYTGVPDRFTGSGSGTDFTLTISNMQSEDLADYFCQQYSSYPLTFGAGTKLELKR
notes: Mouse variable regions on human IgG1 / human kappa constant regions; also called chimeric antibody 1H9
B2: Chimeric 1B5 (antibody, human IgG1, kappa, V domains shown)
VH: QVQLQQPGAELVKPGASVKLSCKASGYTFTSYWMHWVKQRPGQGLEWIGEINPSNGRTNYNENFKSKATLTVDKSSSTAYMQLSSLTSEDSAVYYCARLNTHYVFDYWGQGTTLTVSS
VL: EIVLTQSPTILAASPGEKITFTCSVSSSISSNYLHWYQQKPGFSPKLLIYRTSNLASGVPARFSGSGSGTSYSLTIGTMEAEDVATYYCQQGSGIPFTFGSGTKLEIKR
notes: Mouse variable regions on human IgG1 / human kappa constant regions; also called chimeric antibody 1B5
B3: humanized antibody hu1H7-V6 (antibody, human IgG1, kappa, V domains shown)
VH: QVQLVQSGAEVKKPGASVKVSCKASGYTFTNYWMHWVRQAPGQGLEWIGEINPTNGRTNYNENFKSKVTLTVDTSTSTVYMELSSLRSEDTAVYYCARLNTHYVFDSWGQGTLVTVSS
VL: EIVLTQSPGTLSLSPGERATLSCSVSSSISSNYLHWYQQKPGLSPRLLISRTSTLASGIPARFSGSGSGTEYTLTISRMQSEDFAVYYCQQGSGIPFTFGQGTKLEIKR
notes: Human IgG1 / kappa
B4: humanized antibody hu1H7-V2 (antibody, human IgG1, kappa, V domains shown)
VH: B3 VH with V72R
VL: B3 VL
notes: Human IgG1 / kappa
B5: humanized antibody hu1H7-V7 (antibody, human IgG1, kappa, V domains shown)
VH: B3 VH with T74K, V79A
VL: B3 VL with Y72F, M79L
notes: Human IgG1 / kappa
B6: humanized antibody hu1H7-V9 (antibody, human IgG1, kappa, V domains shown)
VH: B3 VH with L70M
VL: B3 VL with Y72F, M79L
notes: Human IgG1 / kappa
B7: humanized antibody hu1H7-V12 (antibody, human IgG1, kappa, V domains shown)
VH: B3 VH
VL: B3 VL with Y72F, M79L
notes: Human IgG1 / kappa
B8: humanized antibody hu1H7-V11 (antibody, human IgG1, kappa, V domains shown)
VH: B3 VH with K67R
VL: B3 VL with Y72F, M79L
notes: Human IgG1 / kappa
B9: humanized antibody hu1H7-V3 (antibody, human IgG1, kappa, V domains shown)
VH: B3 VH with L70M
VL: B3 VL
notes: Human IgG1 / kappa
B10: humanized antibody hu1H7-V8 (antibody, human IgG1, kappa, V domains shown)
VH: B3 VH with V72R
VL: B3 VL with Y72F, M79L
notes: Human IgG1 / kappa
B11: humanized antibody hu1H7-V1 (antibody, human IgG1, kappa, V domains shown)
VH: B3 VH with T74K, V79A
VL: B3 VL
notes: Human IgG1 / kappa; also called hu1H7-Vl
B12: humanized antibody hu1H7-V1-2 (antibody, human IgG1, kappa, V domains shown)
VH: B3 VH with R38K, E46D, V68A, T74K, V79A
VL: B3 VL with S22T, L43F, E71S, T73S
notes: Human IgG1 / kappa; also called hu1H7-Vl-2

Target: T2, human IL6R-Fc protein (human, biotin-labeled in the ELISAs (sites not given))
T2 construct: In house made; also called biotin-labeled human IL6R-Fc protein
Test: capture ELISA: antibody captured on anti-IgG F(ab')2 coated plate, then biotin-labeled human IL6R-Fc, streptavidin-HRP
Experimental: (§1) For the capture ELISA, 96-well micro plates were coated with 2 μg/ml AffiniPure Goat Anti-Mouse IgG, F(ab′)₂ fragment specific (Jackson ImmunoResearch Laboratories, Inc., Cat #115-005-072) in PBS, 100 μl/well, and incubated for 2 hours at 37° C. Plates were washed once with wash buffer (PBS+0.05% v/v Tween-20, PBST) and then blocked with 200 μl/well blocking buffer (5% w/v non-fatty milk in PBST) overnight at 4° C. […] Plates containing captured anti-IL6R antibodies were incubated with biotin-labeled human IL6R-Fc protein (prepared in house, SEQ ID NO: 43, 39.5 ng/ml in 2.5% w/v non-fatty milk in PBST, 100 μl/well) for 40 minutes at 37° C., washed 4 times, and incubated with streptavidin conjugated HRP (1:10000 dilution in PBST, Jackson ImmunoResearch Laboratories, Inc., Cat #016-030-084, 100 μl/well) for 40 minutes at 37° C. After a final wash, plates were incubated with 100 μl/well ELISA substrate TMB (InnoReagents, Cat #TMB-S-002). The reaction was stopped 3-10 minutes later at room temperature with 50 μl/well 1M H₂SO₄, and the absorbance of each well was read on a microplate reader using dual wavelength mode at 450 nm for TMB and 630 nm as the reference wavelength. Then the OD (450-630) values were plotted against antibody concentration. Data was analyzed using Graphpad Prism software and EC₅₀ values were reported.
(§2) For the capture ELISA, AffiniPure Goat Anti-Human IgG, F(ab′)₂ fragment specific (Jackson Immuno Research, Cat #109-005-097) was used instead of AffiniPure Goat Anti-Mouse IgG, F(ab′)₂ fragment specific, 100 μl/well.

| EC50 | Binder |
| --- | --- |
| 0.0897 nM | B1 |

Target: T2, human IL6R-Fc protein
Test: benchmark blocking ELISA: antibody pre-incubated with biotin-labeled human IL6R-Fc, added to plate-coated Tocilizumab (competitor: Tocilizumab)
Target sequence in this assay (chain, as listed by the source limits assumed): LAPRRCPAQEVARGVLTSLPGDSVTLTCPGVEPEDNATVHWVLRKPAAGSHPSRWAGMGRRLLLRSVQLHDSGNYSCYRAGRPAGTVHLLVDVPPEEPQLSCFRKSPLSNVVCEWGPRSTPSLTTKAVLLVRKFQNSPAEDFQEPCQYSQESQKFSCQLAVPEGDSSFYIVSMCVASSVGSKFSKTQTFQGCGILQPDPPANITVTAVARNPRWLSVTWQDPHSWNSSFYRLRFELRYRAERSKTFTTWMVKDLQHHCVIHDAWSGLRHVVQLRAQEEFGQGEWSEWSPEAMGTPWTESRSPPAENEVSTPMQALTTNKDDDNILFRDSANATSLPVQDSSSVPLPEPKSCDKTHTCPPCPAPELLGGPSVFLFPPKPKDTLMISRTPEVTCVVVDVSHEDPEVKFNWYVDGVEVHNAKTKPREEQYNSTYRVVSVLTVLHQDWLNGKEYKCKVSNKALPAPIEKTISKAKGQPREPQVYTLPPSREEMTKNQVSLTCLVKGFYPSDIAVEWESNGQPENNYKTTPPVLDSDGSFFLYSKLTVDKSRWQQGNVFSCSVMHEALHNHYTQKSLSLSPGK

| IC50 | Binder |
| --- | --- |
| 0.317 nM | B2 |

Target: T2, human IL6R-Fc protein
Test: as above
Remark: another data set of the same source

| IC50 | Binder |
| --- | --- |
| 0.338 nM | B1 |

Target: T2, human IL6R-Fc protein
Test: ligand blocking ELISA: antibody pre-incubated with biotin-labeled human IL6R-Fc, added to plate-coated human IL6 (blocked ligand: human IL6)

| IC50 | Binder |
| --- | --- |
| 0.213 nM | B1 |

Target: T2, human IL6R-Fc protein
Test: as above
Remark: another data set of the same source
Target sequence in this assay (chain, as listed by the source limits assumed): as above

| IC50 | Binder |
| --- | --- |
| 0.299 nM | B2 |

Target: T1, recombinant human IL6R-his
Test: SPR Biacore; antibody from diluted cell supernatant captured by anti-human IgG on CM5, human IL6R in flow
Experimental: (§3) Un-reacted moieties on the biosensor surface were blocked with ethanolamine. […] Then, serially diluted recombinant human IL6R-his (in house made, amino acid sequence set forth in SEQ ID NO: 44) or macaca IL6R-his protein (in house made, amino acid sequence set forth in SEQ ID NO: 45), starting at 100 nM with a 2-fold serial dilution in HBS-EP⁺ buffer (provided by Biacore), was flowed onto the chip at a flow rate of 30 μL/min. The antigen-antibody association kinetics was followed for 2 minutes and the dissociation kinetics was followed for 10 minutes. The association and dissociation curves were fit to a 1:1 Langmuir binding model using BIAcore evaluation software.
Cell supernatants containing humanized antibodies were harvested after six days in shaking flasks and directly subjected to BIAcore test following the protocol described above with modifications.

| Kd | koff | kon | Binder |
| --- | --- | --- | --- |
| 0.584 nM | 0.000195 s⁻¹ | 334000 M⁻¹ s⁻¹ | B3 |
| 0.733 nM | 0.000197 s⁻¹ | 269000 M⁻¹ s⁻¹ | B4 |
| 0.855 nM | 0.000199 s⁻¹ | 233000 M⁻¹ s⁻¹ | B5 |
| 1.05 nM | 0.000222 s⁻¹ | 212000 M⁻¹ s⁻¹ | B6 |
| 0.744 nM | 0.000207 s⁻¹ | 279000 M⁻¹ s⁻¹ | B7 |
| 0.849 nM | 0.000202 s⁻¹ | 238000 M⁻¹ s⁻¹ | B8 |
| 0.568 nM | 0.000176 s⁻¹ | 311000 M⁻¹ s⁻¹ | B9 |
| 0.91 nM | 0.000199 s⁻¹ | 218000 M⁻¹ s⁻¹ | B10 |
| 0.669 nM | 0.000173 s⁻¹ | 258000 M⁻¹ s⁻¹ | B11 |
| 0.63 nM | 0.000165 s⁻¹ | 262000 M⁻¹ s⁻¹ | B12 |

Target: T1, recombinant human IL6R-his
Test: SPR Biacore; antibody captured by anti-human IgG on CM5, human IL6R-his at 100 nM
Experimental: as §3
The recombinant human IL6R-his (amino acid sequence set forth in SEQ ID NO: 44) at the concentration of 100 nM instead of serially diluted recombinant human IL6R-his, was flowed onto the chip at a flow rate of 30 μL/min.

| Kd | koff | kon | Binder |
| --- | --- | --- | --- |
| 0.915 nM | 0.000194 s⁻¹ |  | B1 |
| 0.915 nM | 0.000194 s⁻¹ | 212000 M⁻¹ s⁻¹ | B2 |

Target: T2, human IL6R-Fc protein
Test: capture ELISA: antibody captured on anti-IgG F(ab')2 coated plate, then biotin-labeled human IL6R-Fc, streptavidin-HRP
Remark: another data set of the same source
Experimental: as §1, §2
Target sequence in this assay (chain, as listed by the source limits assumed): as above

| EC50 | Binder |
| --- | --- |
| 0.101 nM | B2 |
